Measurements from patent publication US20240269278A1 (NANJING SHUNXIN PHARMACEUTICALS CO LTD OF CHIATAI TIANQING …, published 2024).

B1: Xi2B2 (antibody, human IgG4 S228P, kappa, V domains shown)
VH: EVMLVESGGGLVQPGGSLKLSCAASGFTFSNYYMSWVRQTPEKRLEWVAYISSGGGSTYYPDSVKGRFTISRDNAKNTLYLQMSSLKSEDTAMYYCAWFAYWGQGTLVTVSA
VL: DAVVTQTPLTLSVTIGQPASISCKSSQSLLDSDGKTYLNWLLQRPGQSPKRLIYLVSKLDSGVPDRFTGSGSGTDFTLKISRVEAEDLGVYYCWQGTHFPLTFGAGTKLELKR
notes: Chimeric: mouse VH on human IgG4 (S228P, EU) constant region, mouse VL on human kappa constant region; made in CHO cells; also called chimeric version of 2B2
B2: Xi14A9 (antibody, human IgG4 S228P, kappa, V domains shown)
VH: EVQLQQSGAEVARPGASVKLSCTVSGFNIEDDYIEWVKQRPEQGLEWIGRIDPANDKTKYAPKFQDKATITGDTSSNTAYLQLSSLTSEDTAVYYCTRPGLRRYYSMDYWGQGTSVTVSS
VL: NIVLTQSPKSMSMSVGERVTLSCKASENVVSYVSWYQQKPEQSPKLLIYGASNRYTGVPDRFIGSGSSTDFTLIISSFQPEDLADYHCGQSYSYPLTFGAGTKLELKR
notes: Chimeric: mouse VH on human IgG4 (S228P, EU) constant region, mouse VL on human kappa constant region; made in CHO cells; also called chimeric version of 14A9
B3: hz3F10-3.1 (antibody, human IgG4 S228P, kappa, V domains shown)
VH: QVQLVQSGAEVKKPGSSVKVSCKASGYTFSRYWIEWVRQAPGQGLEWMGEFIPGSDTTNYAQKFQGRVTITADISTSTAYMELSSLRSEDTAVYYCARGGLRRMDYWGQGTLVTVSS
VL: DIQMTQSPSSLSASVGDRVTITCRASSSVSSTYLHWYQQKPGKAPKLLIYTTSTLASGVPSRFSGSGSGTSYTLTISSLQPEDFATYYCQQFSDSTWTFGQGTKLEIKR
notes: Humanized 3F10, full-length heavy and light chains, made in CHO cells
B4: hz3F10-1.1 (antibody, human IgG4 S228P, kappa, V domains shown)
VH: QVQLVQSGAEVKKPGSSVKVSCKASGYTFSRYWIEWVRQAPGQGLEWMGEFIPGSDTTNYAQKFQGRVTITADISTSTAYMELSSLRSEDTAVYYCARGGLRRMDYWGQGTLVTVSS
VL: DIQMTQSPSSLSASVGDRVTITCRASSSVSSTYLHWYQQKPGKAPKLLIYTTSTLASGVPSRFSGSGSGTDFTLTISSLQPEDFATYYCQQFSDSTWTFGQGTKLEIKR
notes: as for B3
B5: hz3F10-1.2 (antibody, human IgG4 S228P, kappa, V domains shown)
VH: QVQLVQSGAEVKKPGSSVKVSCKASGYTFSRYWIEWVRQAPGQGLEWMGEFIPGSDTTNYAQKFQGRVTITAEISTNTAYMELSSLRSEDTAVYYCARGGLRRMDYWGQGTLVTVSS
VL: DIQMTQSPSSLSASVGDRVTITCRASSSVSSTYLHWYQQKPGKAPKLLIYTTSTLASGVPSRFSGSGSGTDFTLTISSLQPEDFATYYCQQFSDSTWTFGQGTKLEIKR
notes: as for B3
B6: hz3F10-2.1 (antibody, human IgG4 S228P, kappa, V domains shown)
VH: QVQLVQSGAEVKKPGSSVKVSCKASGYTFSRYWIEWVRQAPGQGLEWMGEFIPGSDTTNYAQKFQGRVTITADISTSTAYMELSSLRSEDTAVYYCARGGLRRMDYWGQGTLVTVSS
VL: DIQMTQSPSSLSASVGDRVTITCRASSSVSSTYLHWYQQKPGKAPKLLIYTTSTLASGVPSRFSGSGSGTDFTLTISSLQPEDFATYYCQQFSESTWTFGQGTKLEIKR
notes: as for B3
B7: hz3F10-2.2 (antibody, human IgG4 S228P, kappa, V domains shown)
VH: QVQLVQSGAEVKKPGSSVKVSCKASGYTFSRYWIEWVRQAPGQGLEWMGEFIPGSDTTNYAQKFQGRVTITAEISTNTAYMELSSLRSEDTAVYYCARGGLRRMDYWGQGTLVTVSS
VL: DIQMTQSPSSLSASVGDRVTITCRASSSVSSTYLHWYQQKPGKAPKLLIYTTSTLASGVPSRFSGSGSGTDFTLTISSLQPEDFATYYCQQFSESTWTFGQGTKLEIKR
notes: as for B3
B8: hz3F10-3.2 (antibody, human IgG4 S228P, kappa, V domains shown)
VH: QVQLVQSGAEVKKPGSSVKVSCKASGYTFSRYWIEWVRQAPGQGLEWMGEFIPGSDTTNYAQKFQGRVTITAEISTNTAYMELSSLRSEDTAVYYCARGGLRRMDYWGQGTLVTVSS
VL: DIQMTQSPSSLSASVGDRVTITCRASSSVSSTYLHWYQQKPGKAPKLLIYTTSTLASGVPSRFSGSGSGTSYTLTISSLQPEDFATYYCQQFSDSTWTFGQGTKLEIKR
notes: as for B3
B9: hz3F10-4.1 (antibody, human IgG4 S228P, kappa, V domains shown)
VH: QVQLVQSGAEVKKPGSSVKVSCKASGYTFSRYWIEWVRQAPGQGLEWMGEFIPGSDTTNYAQKFQGRVTITADISTSTAYMELSSLRSEDTAVYYCARGGLRRMDYWGQGTLVTVSS
VL: DIQMTQSPSSLSASVGDRVTITCRASSSVSSTYLHWYQQKPGKAPKLLIYTTSTLASGVPSRFSGSGSGTSYTLTISSLQPEDFATYYCQQFSESTWTFGQGTKLEIKR
notes: as for B3
B10: hz3F10-4.2 (antibody, human IgG4 S228P, kappa, V domains shown)
VH: QVQLVQSGAEVKKPGSSVKVSCKASGYTFSRYWIEWVRQAPGQGLEWMGEFIPGSDTTNYAQKFQGRVTITAEISTNTAYMELSSLRSEDTAVYYCARGGLRRMDYWGQGTLVTVSS
VL: DIQMTQSPSSLSASVGDRVTITCRASSSVSSTYLHWYQQKPGKAPKLLIYTTSTLASGVPSRFSGSGSGTSYTLTISSLQPEDFATYYCQQFSESTWTFGQGTKLEIKR
notes: as for B3
B11: hz3F10-5.1 (antibody, human IgG4 S228P, kappa, V domains shown)
VH: QVQLVQSGAEVKKPGSSVKVSCKASGYTFSRYWIEWVRQAPGQGLEWMGEFIPGSDTTNYAQKFQGRVTITADISTSTAYMELSSLRSEDTAVYYCARGGLRRMDYWGQGTLVTVSS
VL: DIQMTQSPSSLSASVGDRVTITCRASSSVSSTYLHWYQQKPGKAPKLWIYTTSTLASGVPSRFSGSGSGTSYTLTISSLQPEDFATYYCQQFSDSTWTFGQGTKLEIKR
notes: as for B3
B12: hz3F10-5.2 (antibody, human IgG4 S228P, kappa, V domains shown)
VH: QVQLVQSGAEVKKPGSSVKVSCKASGYTFSRYWIEWVRQAPGQGLEWMGEFIPGSDTTNYAQKFQGRVTITAEISTNTAYMELSSLRSEDTAVYYCARGGLRRMDYWGQGTLVTVSS
VL: DIQMTQSPSSLSASVGDRVTITCRASSSVSSTYLHWYQQKPGKAPKLWIYTTSTLASGVPSRFSGSGSGTSYTLTISSLQPEDFATYYCQQFSDSTWTFGQGTKLEIKR
notes: as for B3
B13: hz3F10-6.1 (antibody, human IgG4 S228P, kappa, V domains shown)
VH: QVQLVQSGAEVKKPGSSVKVSCKASGYTFSRYWIEWVRQAPGQGLEWMGEFIPGSDTTNYAQKFQGRVTITADISTSTAYMELSSLRSEDTAVYYCARGGLRRMDYWGQGTLVTVSS
VL: DIQMTQSPSSLSASVGDRVTITCRASSSVSSTYLHWYQQKPGKAPKLWIYTTSTLASGVPSRFSGSGSGTSYTLTISSLQPEDFATYYCQQFSESTWTFGQGTKLEIKR
notes: as for B3
B14: hz3F10-6.2 (antibody, human IgG4 S228P, kappa, V domains shown)
VH: QVQLVQSGAEVKKPGSSVKVSCKASGYTFSRYWIEWVRQAPGQGLEWMGEFIPGSDTTNYAQKFQGRVTITAEISTNTAYMELSSLRSEDTAVYYCARGGLRRMDYWGQGTLVTVSS
VL: DIQMTQSPSSLSASVGDRVTITCRASSSVSSTYLHWYQQKPGKAPKLWIYTTSTLASGVPSRFSGSGSGTSYTLTISSLQPEDFATYYCQQFSESTWTFGQGTKLEIKR
notes: as for B3
B15: Xi2H8 (antibody, human IgG4 S228P, kappa, V domains shown)
VH: QVQLKESGPGLVAPSQSLSITCTVSGFSLTNYGVHWVRQPPGKGLEWLGIIWAGGSTNYNSALMSRLSISKDNSKSQVFLKMNSLQTDDTAMYYCARDDYASMDYWGQGTSVTVSS
VL: DAFMTQTPLSLPVSLGDQASISCRSSQSLVHSNGNTYLHWYLQKPGQSPKLLIYKVSNRFSGVPDRFSGSGSGTDFTLKISRVEAEDLGVYFCSQSTHVPYTLGGGTKLEIKR
notes: Chimeric: mouse VH on human IgG4 (S228P, EU) constant region, mouse VL on human kappa constant region; made in CHO cells; also called chimeric version of 2H8
B16: hz16E5-1.2 (antibody, human IgG4 S228P, kappa)
heavy: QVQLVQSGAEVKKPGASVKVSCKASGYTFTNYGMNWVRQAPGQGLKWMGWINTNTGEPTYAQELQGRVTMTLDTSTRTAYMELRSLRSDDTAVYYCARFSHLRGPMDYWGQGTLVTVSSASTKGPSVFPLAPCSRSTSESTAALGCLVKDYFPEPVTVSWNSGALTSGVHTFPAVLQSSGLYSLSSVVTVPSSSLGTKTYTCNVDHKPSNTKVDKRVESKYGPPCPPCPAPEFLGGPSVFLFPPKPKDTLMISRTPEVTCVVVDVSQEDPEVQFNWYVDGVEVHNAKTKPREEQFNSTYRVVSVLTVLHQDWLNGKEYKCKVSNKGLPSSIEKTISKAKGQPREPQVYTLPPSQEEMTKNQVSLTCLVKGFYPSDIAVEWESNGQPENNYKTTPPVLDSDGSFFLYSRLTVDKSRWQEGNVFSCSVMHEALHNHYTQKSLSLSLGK
light: DIQMTQSPSSLSASVGDRVTITCRSSQSLVHSNGYTYLHWYQQKPGKAPKLLIYKVSNRFSGVPSRFSGSGSGTDFTLTISSLQPEDFATYYCSQSTHVPPTFGQGTKLEIKRTVAAPSVFIFPPSDEQLKSGTASVVCLLNNFYPREAKVQWKVDNALQSGNSQESVTEQDSKDSTYSLSSTLTLSKADYEKHKVYACEVTHQGLSSPVTKSFNRGEC
notes: Humanized 16E5, full-length heavy and light chains, made in CHO cells
B17: hz16E5-1.1 (antibody, human IgG4 S228P, kappa)
heavy: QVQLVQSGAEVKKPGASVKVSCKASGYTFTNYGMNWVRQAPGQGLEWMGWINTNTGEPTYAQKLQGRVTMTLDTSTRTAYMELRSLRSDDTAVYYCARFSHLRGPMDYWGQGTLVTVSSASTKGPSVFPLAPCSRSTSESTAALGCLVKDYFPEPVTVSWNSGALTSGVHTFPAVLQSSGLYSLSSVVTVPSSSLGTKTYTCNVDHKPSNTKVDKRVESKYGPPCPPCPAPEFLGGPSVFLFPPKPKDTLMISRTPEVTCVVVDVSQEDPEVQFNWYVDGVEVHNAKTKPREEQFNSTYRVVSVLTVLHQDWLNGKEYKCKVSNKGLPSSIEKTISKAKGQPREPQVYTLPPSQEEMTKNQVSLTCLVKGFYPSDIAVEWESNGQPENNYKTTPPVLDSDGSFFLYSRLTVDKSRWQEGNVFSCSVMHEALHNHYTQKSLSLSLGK
light: DIQMTQSPSSLSASVGDRVTITCRSSQSLVHSNGYTYLHWYQQKPGKAPKLLIYKVSNRFSGVPSRFSGSGSGTDFTLTISSLQPEDFATYYCSQSTHVPPTFGQGTKLEIKRTVAAPSVFIFPPSDEQLKSGTASVVCLLNNFYPREAKVQWKVDNALQSGNSQESVTEQDSKDSTYSLSSTLTLSKADYEKHKVYACEVTHQGLSSPVTKSFNRGEC
notes: as for B16
B18: hz16E5-1.3 (antibody, human IgG4 S228P, kappa)
heavy: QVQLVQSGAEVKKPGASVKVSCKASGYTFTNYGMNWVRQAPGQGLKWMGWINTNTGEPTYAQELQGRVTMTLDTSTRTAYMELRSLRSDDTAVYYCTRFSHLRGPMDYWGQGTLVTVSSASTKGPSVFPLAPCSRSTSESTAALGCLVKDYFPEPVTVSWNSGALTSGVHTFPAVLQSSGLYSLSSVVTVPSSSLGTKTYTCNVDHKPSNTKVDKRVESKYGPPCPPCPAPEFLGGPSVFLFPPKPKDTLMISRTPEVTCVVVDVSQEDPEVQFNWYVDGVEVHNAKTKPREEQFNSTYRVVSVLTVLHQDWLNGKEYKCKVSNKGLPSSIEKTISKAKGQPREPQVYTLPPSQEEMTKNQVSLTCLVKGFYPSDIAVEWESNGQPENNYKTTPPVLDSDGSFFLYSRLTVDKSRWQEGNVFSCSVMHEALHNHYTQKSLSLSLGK
light: DIQMTQSPSSLSASVGDRVTITCRSSQSLVHSNGYTYLHWYQQKPGKAPKLLIYKVSNRFSGVPSRFSGSGSGTDFTLTISSLQPEDFATYYCSQSTHVPPTFGQGTKLEIKRTVAAPSVFIFPPSDEQLKSGTASVVCLLNNFYPREAKVQWKVDNALQSGNSQESVTEQDSKDSTYSLSSTLTLSKADYEKHKVYACEVTHQGLSSPVTKSFNRGEC
notes: as for B16
B19: hz16E5-3.1 (antibody, human IgG4 S228P, kappa)
heavy: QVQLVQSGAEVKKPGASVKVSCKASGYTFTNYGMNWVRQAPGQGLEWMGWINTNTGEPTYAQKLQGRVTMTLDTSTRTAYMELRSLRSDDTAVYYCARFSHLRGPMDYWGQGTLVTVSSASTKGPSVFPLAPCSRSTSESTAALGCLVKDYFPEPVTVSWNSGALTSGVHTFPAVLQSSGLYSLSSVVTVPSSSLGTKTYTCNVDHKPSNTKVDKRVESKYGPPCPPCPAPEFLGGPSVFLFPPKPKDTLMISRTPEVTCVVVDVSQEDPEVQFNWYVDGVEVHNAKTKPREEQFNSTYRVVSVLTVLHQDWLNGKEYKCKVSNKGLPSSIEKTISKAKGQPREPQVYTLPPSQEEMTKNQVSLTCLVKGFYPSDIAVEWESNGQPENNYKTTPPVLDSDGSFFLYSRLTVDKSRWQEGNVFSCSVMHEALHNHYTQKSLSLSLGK
light: DAQMTQSPSSLSASVGDRVTITCRSSQSLVHSNGYTYLHWYQQKPGKAPKLLIYKVSNRFSGVPSRFSGSGSGTDFTLTISSLQPEDFATYYCSQSTHVPPTFGQGTKLEIKRTVAAPSVFIFPPSDEQLKSGTASVVCLLNNFYPREAKVQWKVDNALQSGNSQESVTEQDSKDSTYSLSSTLTLSKADYEKHKVYACEVTHQGLSSPVTKSFNRGEC
notes: as for B16
B20: hz16E5-3.2 (antibody, human IgG4 S228P, kappa)
heavy: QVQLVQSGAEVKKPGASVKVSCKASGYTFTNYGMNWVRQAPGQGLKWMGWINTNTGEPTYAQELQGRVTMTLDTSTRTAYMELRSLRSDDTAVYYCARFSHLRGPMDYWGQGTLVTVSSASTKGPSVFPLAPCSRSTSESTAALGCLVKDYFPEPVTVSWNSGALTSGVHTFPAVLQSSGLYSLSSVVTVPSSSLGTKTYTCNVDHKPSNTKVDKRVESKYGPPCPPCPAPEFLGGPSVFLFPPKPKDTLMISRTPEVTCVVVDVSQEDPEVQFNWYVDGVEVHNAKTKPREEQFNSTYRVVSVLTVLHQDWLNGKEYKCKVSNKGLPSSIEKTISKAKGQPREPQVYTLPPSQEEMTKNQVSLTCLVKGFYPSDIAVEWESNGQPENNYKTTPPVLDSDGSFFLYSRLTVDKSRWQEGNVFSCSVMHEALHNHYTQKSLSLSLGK
light: DAQMTQSPSSLSASVGDRVTITCRSSQSLVHSNGYTYLHWYQQKPGKAPKLLIYKVSNRFSGVPSRFSGSGSGTDFTLTISSLQPEDFATYYCSQSTHVPPTFGQGTKLEIKRTVAAPSVFIFPPSDEQLKSGTASVVCLLNNFYPREAKVQWKVDNALQSGNSQESVTEQDSKDSTYSLSSTLTLSKADYEKHKVYACEVTHQGLSSPVTKSFNRGEC
notes: as for B16

Key:
[1] = target: T1, human CD47 protein, His Tag (ACRObiosystems, Cat. No. CD7-H5227) (human, UniProt Q08722 19-139); test: Biacore SPR, antibody captured on CM5 chip, CD47-His protein, 25 C
T1 construct: Bought protein; also called hCD47-His Tag protein; not shown: His tag
Experimental: (§1) The equilibrium dissociation constants KD (in unit M) were obtained by measuring the binding kinetics of the human CD47 protein (human CD47 protein, His Tag; ACRObiosystems, Cat. No. CD7-H5227) and cynomolgus monkey CD47 protein (cynomolgus/rhesus macaque CD47 protein, His Tag; ACRObiosystems, Cat. No. CD7-C52H1) to anti-CD47 antibodies (chimeric or humanized) using Biacore. The Biacore analysis was performed at 25° C. and data were recorded at a rate of 1 Hz.
(§2) At the beginning of each cycle, the diluted test antibody (1.5 μg/mL) was injected onto the experimental flowcell and maintained for 1 min to be captured.

[2] = target: T2, cynomolgus/rhesus macaque CD47 protein, His Tag (ACRObiosystems, Cat. No. CD7-C52H1) (cynomolgus monkey, UniProt A0A2K5X523 19-139); test: as above
T2 construct: Bought protein; also called Cynomolgus monkey CD47 protein; not shown: His tag
Experimental: as §1, §2

T1 sequence (Q08722 19-139 limits assumed): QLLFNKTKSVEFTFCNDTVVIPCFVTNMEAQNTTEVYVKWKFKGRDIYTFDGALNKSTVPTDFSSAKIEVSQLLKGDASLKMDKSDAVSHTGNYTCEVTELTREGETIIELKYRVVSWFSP

| Binder | Kd [1] [nM] | Kd [2] [nM] |
| --- | --- | --- |
| B1 | 7.48 | 1.2 |
| B2 | 2.35 | 1.58 |
| B3 | 1.53 |  |
| B4 | 0.946 | 1.31 |
| B5 | 0.904 | 1.33 |
| B6 | 0.836 | 1.17 |
| B7 | 0.779 | 1.14 |
| B8 | 1.15 | 1.47 |
| B9 | 1.42 | 1.62 |
| B10 | 1.34 | 1.86 |
| B11 | 0.96 | 1.3 |
| B12 | 0.896 | 1.4 |
| B13 | 0.592 | 2.47 |
| B14 | 0.765 | 1.15 |
| B15 | 0.35 | 1.25 |
| B16 | 9.31 | 2.26 |
| B17 | 18.9 | 4.77 |
| B18 | 15.3 | 2.73 |
| B19 | 6.28 | 3.28 |
| B20 | 17.1 | 3.1 |
